Experimental data as given in patent publication US20260167740A1, “MEANS AND METHODS FOR TREATING CASTRATION-RESISTANT PROSTATE CANCER” (Merus N.V., priority 2022, published 2026).

Experiments:
Format in all cases: in vivo, human
[1] = Phase II clinical study of zenocutuzumab with an AR axis-targeting agent in mCRPC patients: safety; settings: cohort of ten mCRPC patients
Description: (§1) This is a Phase II, open-label, multicenter, international study designed to evaluate the efficacy of zenocutuzumab in patients with metastatic mCRPC with evidence of disease progression in accordance with Prostate Cancer Clinical Trials Working Group 3 (PCWG3) criteria on the last line of prior hormonal therapy that included either the second-generation AR antagonist enzalutamide or the androgen synthesis inhibitor abiraterone acetate. Patients will be enrolled and will receive zenocutuzumab in combination with the AR targeting agent on which they experienced disease progression immediately before study entry. A cohort of patients with […] and tensin homolog (PTEN) wild-type status will be enrolled. A safety run-in will be performed in the first 4 to 6 patients.
(§2) Zenocutuzumab will be administered as a 2-hour IV infusion on Day 1, then Q2W of every 28-day cycle. A flat dose of 750 mg will be administered.
(§3) Patients will receive zenocutuzumab in combination with one of the following next generation AR signaling inhibitors that the patient was receiving immediately prior to entering the study: • Abiraterone acetate (ZYTIGA®) 1000 mg PO QD in combination with prednisone 5 mg PO twice daily (BID). • Enzalutamide (XTANDIR) 160 mg PO QD.
(§4) Eligible patients will be enrolled and will receive sequential treatment cycles, with a treatment cycle being 4 weeks (28 days). All patients will receive zenocutuzumab with a flat dose of 750 mg IV Q2W.
(§5) Following the clinical trial protocol of Example 2, mCRPC patients with histologically confirmed prostate adenocarcinoma were enrolled. Patients who were progressing on either abiraterone acetate or enzalutamide were continued on their backbone AR axis-targeting agents after study enrollment and received treatment with zenocutuzumab in combination. Sites of metastatic involvement included lymph nodes, bone, and/or visceral organs. PTEN status of tumors was established in patients by IHC when sufficient biological material was available, using Roche Ventana Optiview kit DAB and SP218 PTEN antibody using Benchmark Ultra immunohistochemical automated slide stainer. The OptiView DAB IHC Detection Kit (OptiView) is an indirect, biotin-free system for detecting mouse IgG, mouse IgM and rabbit primary antibodies. The kit is intended to identify targets by IHC in sections of formalin-fixed, paraffin-embedded and frozen tissue that are stained on the VENTANA automated slide stainers and visualized by light microscopy. The clinical interpretation of any staining, or the absence of staining, is complemented by morphological studies and evaluation of proper controls.
Among a cohort of ten patients treated, treatment-emergent adverse events (TEAE) related to study treatment classified as a Grade 3 TEAE or higher were not observed.

[2] = system: castration-resistant prostate cancer; assay: Phase II clinical study of zenocutuzumab with an AR axis-targeting agent in mCRPC patients: tumor response (RECIST v1.1 / PCWG3)
Description: as §1, §2, §3, §4
Radiological measurement of tumors to assess antitumor effect of zenocutuzumab will be performed by CT scan or MRI. Imaging will be performed according to standard local practice and data will be collected in the electronic case report form. Imaging of all patients will be assessed by the local investigator.
Whole body bone scintigraphy will be performed every 8 weeks for the first 12 months of treatment and every 12 weeks thereafter. Tumor assessments will be completed according to PCWG3-modified RECIST criteria.
as §5

[3] = Single-agent treatment of over 100 patients with MF3958×MF3178: tolerability and immunogenicity
[4] = zenocutuzumab in combination with abiraterone acetate or enzalutamide
[5] = Example 4: person with mCRPC, combination with enzalutamide, 6 months
[6] = Example 5: person with mCRPC, PTEN loss, combination with abiraterone acetate/prednisone, 4 months

In the case of “zenocutuzumab: Full length IgG1 bispecific antibody comprising MF3958×MF3178, targeting ERBB2 and ERBB3”, the “treatment-emergent adverse events (TEAE) related to study treatment classified as Grade 3 TEAE or higher” value ([1]; zenocutuzumab 750 mg IV Q2W in combination with abiraterone acetate or enzalutamide) is reported as “not observed”, the “infusion-related reactions (IRR) reported” value [1, 4] is reported as “a single IRR was reported (i.e. Grade 2, related)” and the safety concerns [1, 4] is reported as “no safety concerns”. The “tolerability of the combination” value [1, 4] was “very well tolerated”, the “treatment discontinuation due to an adverse event” value [1, 4] was “no treatment discontinuation” and the “unexpected signals of toxicity” value [1, 4] was “nor were any unexpected signals of toxicity reported”. For the same substance, the “radiographic progression (lymph node)” value ([2]; Example 4: combination with enzalutamide, after six months of on-going treatment) was “no evidence of lymph node progression”, the “best overall response by RECIST” value [2, 5] was “stable disease” and the “response by bone scans by PCWG3” value [2, 5] was “no evidence of disease (NED)”. The “radiographic progression (lymph node or bone)” value ([2]; Example 5: combination with abiraterone acetate/prednisone, after five months of on-going treatment) was “no evidence of lymph node or bone progression”, the “best overall response by RECIST” value [2, 6] was “stable disease” and the “response by bone scans by PCWG3” value [2, 6] was “stable disease”. For the same substance, the “best overall response by measurement of target lesions (lymph nodes) under RECIST v1.1 per investigator” value ([2]; Example 6: person with mCRPC, PTEN wildtype, combination with enzalutamide) was “stable disease”, the risk for immunogenicity [3] was “low risk for immunogenicity” and the “tolerability as a single agent” value [3] was “well tolerated”.
